Measured values published in patent US20240117049A1 (Hoffmann-La Roche, published 2024).
Substitutions are numbered along the chain they refer to. Each block holds one binder with its values, some of them ahead of it.

Key:
[1] = target: T1, biotinylated recombinant human FAP (human, UniProt Q12884 27-760, biotinylated); experiment: SPR (Biacore)
T1 construct: the Biacore paragraphs only say biotinylated (recombinant) human FAP; also called biotinylated human FAP; recombinant huFAP

human OX40 on cells [2] = target: T2, human OX40 on cells (human, UniProt P43489 29-277); experiment: cell-based or functional assay
T2 sequence: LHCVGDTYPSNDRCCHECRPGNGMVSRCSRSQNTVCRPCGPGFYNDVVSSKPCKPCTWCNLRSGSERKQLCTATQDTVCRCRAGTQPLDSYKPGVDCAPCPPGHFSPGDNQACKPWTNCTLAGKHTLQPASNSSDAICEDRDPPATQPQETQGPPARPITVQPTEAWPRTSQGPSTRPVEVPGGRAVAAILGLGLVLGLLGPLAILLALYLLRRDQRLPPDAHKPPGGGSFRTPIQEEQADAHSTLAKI

human OX40 on cells [3] = target: T2, human OX40 on cells; experiment: cell-based or functional assay; remark: listed apart in the source
[4] = target: T1, biotinylated recombinant human FAP; experiment: SPR (Biacore), biotinylated huFAP on CAP chip, Fab as analyte, 1:1 fit
Protocol: As running and dilution buffer, HBS-P+ (10 mM HEPES, 150 mM NaCl pH 7.4, 0.05% Surfactant P20) was used. A dilution series of anti-huFAP Fabs (3.7-300 nM, 1:3 dilution) was successively injected for 120s each, dissociation was monitored for 1800s at a flow rate of 30 μl/min (single cycle kinetics). The surface was regenerated by injecting 6 M guanidine-HCl, 0.25 M NaOH for 120s. Bulk refractive index differences were corrected by subtracting blank injections and by subtracting the response obtained from the control flow cell without captured human FAP. Curve fitting was performed using the 1:1 Langmuir binding model within the Biacore evaluation software.

Kd [1]: 0.213 nM | T ½ [1]: 1.8 h | koff [1]: 0.000107 s⁻¹ | kon [1]: 502000 M⁻¹ s⁻¹
B1: P1AE1702_Fab, humanized anti-FAP Fab VH2G2a/VL2G2a (Fab, V domains shown)
VH: EVQLLESGGGLVQPGGSLRLSCAASGYTLTDYNMDWVRQAPGKGLEWVGDIYPNTGGTIYNQKFKGRFTISIDKSKNTAYLQMNSLRAEDTAVYYCTRFRGIHYAMDYWGQGTTVTVSS
VL: DIQMTQSPSSLSASVGDRVTITCRASESVDNYGLSFINWFQQKPGQPPKLLIYGTSNRGSGVPSRFSGSGSGTDFTLTISSLQPEDFAMYFCQQSNEVPYTFGGGTKVEIK

AUC of CD25 upregulation compared to reference compound [%] (human OX40 on cells [2]): 13% | EC50 of NFκB activation, HeLa_hOx40_NFkB_Luc1, w/ hu FAP+ fibroblasts (human OX40 on cells [3]): 0.18 nM | EC50 of NFκB activation, HeLa_hOx40_NFkB_Luc1, w/o crosslinking (human OX40 on cells [3]): 0.23 nM
B2: P1AD3690, untargeted tetravalent OX40 (49B4) antigen binding molecule (4+0) (antibody, human IgG1, kappa, L234A L235A)
heavy: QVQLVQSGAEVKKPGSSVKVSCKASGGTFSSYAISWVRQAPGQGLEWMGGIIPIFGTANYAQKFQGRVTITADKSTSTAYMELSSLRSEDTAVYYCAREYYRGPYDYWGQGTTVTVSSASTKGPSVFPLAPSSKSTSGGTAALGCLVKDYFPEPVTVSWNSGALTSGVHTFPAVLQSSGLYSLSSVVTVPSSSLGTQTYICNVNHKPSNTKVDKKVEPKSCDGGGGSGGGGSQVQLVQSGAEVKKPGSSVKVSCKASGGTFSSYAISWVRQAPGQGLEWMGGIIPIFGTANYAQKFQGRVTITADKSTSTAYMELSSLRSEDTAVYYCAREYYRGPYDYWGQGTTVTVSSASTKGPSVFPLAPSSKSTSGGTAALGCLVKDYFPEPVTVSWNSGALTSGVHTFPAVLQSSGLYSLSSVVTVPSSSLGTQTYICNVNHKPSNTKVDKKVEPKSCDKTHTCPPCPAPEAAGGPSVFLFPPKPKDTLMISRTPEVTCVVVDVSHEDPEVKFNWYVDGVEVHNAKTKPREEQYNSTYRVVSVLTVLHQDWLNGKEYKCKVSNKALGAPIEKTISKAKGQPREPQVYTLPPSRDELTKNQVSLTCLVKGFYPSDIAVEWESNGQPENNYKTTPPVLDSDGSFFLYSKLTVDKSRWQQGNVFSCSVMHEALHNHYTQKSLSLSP
light: DIQMTQSPSTLSASVGDRVTITCRASQSISSWLAWYQQKPGKAPKLLIYDASSLESGVPSRFSGSGSGTEFTLTISSLQPDDFATYYCQQYSSQPYTFGQGTKVEIKRTVAAPSVFIFPPSDEQLKSGTASVVCLLNNFYPREAKVQWKVDNALQSGNSQESVTEQDSKDSTYSLSSTLTLSKADYEKHKVYACEVTHQGLSSPVTKSFNRGEC

Kd [1]: 0.279 nM | T ½ [1]: 0.917 h | koff [1]: 0.000208 s⁻¹ | kon [1]: 747000 M⁻¹ s⁻¹ | Kd [4]: 0.43 nM | koff [4]: 0.00078 s⁻¹ | kon [4]: 1.82e+06 M⁻¹ s⁻¹
B3: 4B9_Fab (Fab, V domains shown)
VH: EVQLLESGGGLVQPGGSLRLSCAASGFTFSSYAMSWVRQAPGKGLEWVSAIIGSGASTYYADSVKGRFTISRDNSKNTLYLQMNSLRAEDTAVYYCAKGWFGGFNYWGQGTLVTVSS
VL: EIVLTQSPGTLSLSPGERATLSCRASQSVTSSYLAWYQQKPGQAPRLLINVGSRRATGIPDRFSGSGSGTDFTLTISRLEPEDFAVYYCQQGIMLPPTFGQGTKVEIK
notes: Fab; also called anti-FAP 4B9 Fab

Kd [1]: 0.114 nM | T ½ [1]: 3.05 h | koff [1]: 6.3e-05 s⁻¹ | kon [1]: 551000 M⁻¹ s⁻¹
B4: P1AE1690_Fab, humanized anti-FAP Fab VH1G2a/VL1G1a (Fab, V domains shown)
VH: QVQLVQSGAEVKKPGASVKVSCKASGYTLTDYNMDWVRQAPGKSLEWIGDIYPNTGGTIYNQKFKGRVTMTIDKSTSTVYMELSSLRSEDTAVYYCTRFRGIHYAMDYWGQGTTVTVSS
VL: EIVLTQSPATLSLSPGERATLSCRASESVDNYGLSFINWFQQKPGQAPRLLIYGTSNRGSGIPARFSGSGSGTDFTLTISSLEPEDFAVYFCQQSNEVPYTFGGGTKVEIK

Kd [1]: 0.095 nM | T ½ [1]: 4.57 h | koff [1]: 4.21e-05 s⁻¹ | kon [1]: 443000 M⁻¹ s⁻¹
B5: P1AE1689_Fab, humanized anti-FAP Fab VH1G1a/VL1G1a (Fab, V domains shown)
VH: B4 VH with K43Q, S44G, K74T
VL: B4 VL
notes: also called FAP antibody 1G1a; H212

Kd [1]: 0.135 nM | T ½ [1]: 2.68 h | koff [1]: 7.18e-05 s⁻¹ | kon [1]: 530000 M⁻¹ s⁻¹
B6: P1AE1693_Fab, humanized anti-FAP Fab VH1G2a/VL1G2a (Fab, V domains shown)
VH: B4 VH
VL: B4 VL with A47P
